This data set concerns the target GST-SH2 (c-Src SH2 domain) (human, UniProt P12931 151-248). As to the kind of experiment: ELONA; ELONA with plated GST proteins and digoxigenin-labelled aptamers (buffer not given in material); selection in PBS + 1 mM Mg, 37 C. The following applies: protein: recombinant, label: digoxigenin.

B1: ApSH2.14F (ssDNA)
DNA: GCGGATGAAGACTGGTGTAGACAATGGATACTCCCGCCACCTCCTCCCCCGCCCCCCCGCCCTAAATACGAGCAAC
Regarding B1, the binding result was “binds”.

B2: ApSH2.17F (ssDNA)
DNA: GCGGATGAAGACTGGTGTGCGGTGGTGGGTTGGGTGGGTGGGTTTGCGGGTTGCGTTGGCCCTAAATACGAGCAAC
Consider B2, for which the binding result (G-quadruplex examined in silico) is recorded as “binds”.

Source of the values: article PMC7865352, “The Relevance of the SH2 Domain for c-Src Functionality in Triple-Negative Breast Cancer Cells”.
